Experimental data as given in paper PMC2953525, “Subtle Alterations in PCNA-Partner Interactions Severely Impair DNA Replication and Repair” (PLoS Biology, 2010).
Where no end group is shown, it is not given here.

Experiments:
[1] = target: T1, pol30-Rad30E9, 6×Histidine-tagged (yeast, UniProt P15873 1-258, IDCL DIDADFLKIEEL to DNDWDFLKIDEL); assay: SPR; ProteOn XPR36; WT or mutant PCNA (0.4 to 5.2 fmol) immobilised on a GLM chip by carbodiimide-activated succinimide coupling; PIP peptides 5–5,000 nM at 30 µl/min; peptide buffer 150 mM NaCl, 1 mM EDTA, 0.01% Tween-80, 30 mM Hepes, pH 7.5; details: both partners purified
T1 construct: PCNA (POL30), yeast, in pET28; also called Pol30-Rad30E9p; source: E. coli BL21, in cleared crude lysate (ELISA); purified by Ni-NTA (SPR)
T1 sequence: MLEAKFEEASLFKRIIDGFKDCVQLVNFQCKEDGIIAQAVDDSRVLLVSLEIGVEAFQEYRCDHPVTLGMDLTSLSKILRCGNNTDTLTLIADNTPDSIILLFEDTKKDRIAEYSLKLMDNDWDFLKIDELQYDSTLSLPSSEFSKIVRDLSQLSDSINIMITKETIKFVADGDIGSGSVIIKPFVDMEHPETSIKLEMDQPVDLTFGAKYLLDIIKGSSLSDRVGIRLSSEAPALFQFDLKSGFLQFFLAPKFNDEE

pol30-Ung1E3 = target: T2, pol30-Ung1E3 (yeast, UniProt P15873 1-258, IDCL DIDADFLKIEEL to DFDYDELKIEEL); assay: two-hybrid; quantitative Y2H: generation time of the YRG2 strains in liquid SC-Leu-Trp-His, given relative to cells expressing WT PCNA; average of at least 3 experiments; details: partners not purified
T2 construct: PCNA (POL30), yeast; source: yeast two-hybrid fusion (pAD-GAL4, strain YRG2)
T2 sequence: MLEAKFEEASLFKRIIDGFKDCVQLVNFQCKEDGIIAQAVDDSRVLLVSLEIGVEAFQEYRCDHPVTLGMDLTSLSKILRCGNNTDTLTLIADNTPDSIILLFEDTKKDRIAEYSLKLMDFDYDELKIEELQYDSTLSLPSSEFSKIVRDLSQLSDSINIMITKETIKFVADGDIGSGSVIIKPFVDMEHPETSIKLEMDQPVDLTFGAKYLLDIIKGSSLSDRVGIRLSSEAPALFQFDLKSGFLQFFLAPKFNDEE

pol30-79 = target: T3, pol30-79 (yeast, UniProt P15873 1-258, IDCL DIDADFLKIEEL to DIDADFAKAEEL); assay: as above; details: partners not purified
T3 construct: PCNA (POL30), yeast; the changes are then L126A and I128A; also called PCNA79; source: yeast two-hybrid fusion (pAD-GAL4, strain YRG2)
T3 sequence: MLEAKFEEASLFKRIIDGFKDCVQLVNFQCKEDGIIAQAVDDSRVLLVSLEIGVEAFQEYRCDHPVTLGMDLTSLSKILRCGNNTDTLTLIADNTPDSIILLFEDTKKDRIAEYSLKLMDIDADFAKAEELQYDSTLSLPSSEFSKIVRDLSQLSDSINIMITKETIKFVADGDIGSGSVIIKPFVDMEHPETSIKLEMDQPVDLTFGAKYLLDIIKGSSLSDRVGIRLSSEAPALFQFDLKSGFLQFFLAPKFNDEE

[2] = target: T4, pol30-Msh6E6, 6×Histidine-tagged (yeast, UniProt P15873 1-258, IDCL DIDADFLKIEEL to DYDKDLLKIIEL); assay: SPR; ProteOn XPR36; WT or mutant PCNA (0.4 to 5.2 fmol) immobilised on a GLM chip by carbodiimide-activated succinimide coupling; PIP peptides 5–5,000 nM at 30 µl/min; peptide buffer 150 mM NaCl, 1 mM EDTA, 0.01% Tween-80, 30 mM Hepes, pH 7.5; details: both partners purified
T4 construct: PCNA (POL30), yeast, in pET28; source: E. coli BL21, in cleared crude lysate (ELISA); purified by Ni-NTA (SPR)
T4 sequence: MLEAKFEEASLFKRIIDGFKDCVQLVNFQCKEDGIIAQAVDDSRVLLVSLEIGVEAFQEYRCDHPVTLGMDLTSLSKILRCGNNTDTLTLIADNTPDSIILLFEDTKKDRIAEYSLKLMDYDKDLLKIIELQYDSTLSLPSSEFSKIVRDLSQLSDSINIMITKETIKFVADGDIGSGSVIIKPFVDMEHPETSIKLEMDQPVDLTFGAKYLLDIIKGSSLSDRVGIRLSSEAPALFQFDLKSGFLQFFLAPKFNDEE

pol30-Msh6E6 = target: T5, pol30-Msh6E6 (yeast, UniProt P15873 1-258, IDCL DIDADFLKIEEL to DYDKDLLKIIEL); assay: two-hybrid; quantitative Y2H: generation time of the YRG2 strains in liquid SC-Leu-Trp-His, given relative to cells expressing WT PCNA; average of at least 3 experiments; details: partners not purified
T5 construct: PCNA (POL30), yeast; source: yeast two-hybrid fusion (pAD-GAL4, strain YRG2)
T5 sequence: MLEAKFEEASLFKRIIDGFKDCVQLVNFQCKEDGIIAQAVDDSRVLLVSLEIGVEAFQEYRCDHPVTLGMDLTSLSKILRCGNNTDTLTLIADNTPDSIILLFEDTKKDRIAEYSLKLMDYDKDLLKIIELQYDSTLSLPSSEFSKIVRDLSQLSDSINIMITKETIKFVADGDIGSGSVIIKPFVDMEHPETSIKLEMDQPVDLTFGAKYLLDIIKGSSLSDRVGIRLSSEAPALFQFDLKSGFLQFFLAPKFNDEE

pol30-Msh6E2 = target: T6, pol30-Msh6E2 (yeast, UniProt P15873 1-258, IDCL DIDADFLKIEEL to DYDRDMLKISEL); assay: as above; details: partners not purified
T6 construct: PCNA (POL30), yeast; source: yeast two-hybrid fusion (pAD-GAL4, strain YRG2)
T6 sequence: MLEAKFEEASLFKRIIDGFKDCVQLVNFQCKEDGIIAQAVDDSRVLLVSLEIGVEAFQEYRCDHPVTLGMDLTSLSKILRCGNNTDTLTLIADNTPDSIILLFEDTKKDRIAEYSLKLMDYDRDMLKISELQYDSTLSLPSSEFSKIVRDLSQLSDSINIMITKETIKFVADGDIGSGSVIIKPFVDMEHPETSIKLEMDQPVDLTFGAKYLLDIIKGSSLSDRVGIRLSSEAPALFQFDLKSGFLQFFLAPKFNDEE

[3] = target: T7, pol30-Ung1E3, 6×Histidine-tagged (yeast, UniProt P15873 1-258, IDCL DIDADFLKIEEL to DFDYDELKIEEL); assay: SPR; ProteOn XPR36; WT or mutant PCNA (0.4 to 5.2 fmol) immobilised on a GLM chip by carbodiimide-activated succinimide coupling; PIP peptides 5–5,000 nM at 30 µl/min; peptide buffer 150 mM NaCl, 1 mM EDTA, 0.01% Tween-80, 30 mM Hepes, pH 7.5; details: both partners purified
T7 construct: PCNA (POL30), yeast, in pET28; source: E. coli BL21, in cleared crude lysate (ELISA); purified by Ni-NTA (SPR)
T7 sequence: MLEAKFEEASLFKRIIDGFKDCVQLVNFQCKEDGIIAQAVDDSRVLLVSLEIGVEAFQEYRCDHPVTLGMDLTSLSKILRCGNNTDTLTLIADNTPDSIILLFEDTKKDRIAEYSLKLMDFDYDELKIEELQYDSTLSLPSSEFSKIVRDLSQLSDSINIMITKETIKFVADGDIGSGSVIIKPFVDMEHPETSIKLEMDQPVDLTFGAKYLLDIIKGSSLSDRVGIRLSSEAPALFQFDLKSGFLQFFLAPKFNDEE

[4] = target: T8, pol30-Pol32E9, 6×Histidine-tagged (yeast, UniProt P15873 1-258, IDCL DIDADFLKIEEL to DNDVDSLKIIEL); assay: as above; details: both partners purified
T8 construct: PCNA (POL30), yeast, in pET28; source: E. coli BL21, in cleared crude lysate (ELISA); purified by Ni-NTA (SPR)
T8 sequence: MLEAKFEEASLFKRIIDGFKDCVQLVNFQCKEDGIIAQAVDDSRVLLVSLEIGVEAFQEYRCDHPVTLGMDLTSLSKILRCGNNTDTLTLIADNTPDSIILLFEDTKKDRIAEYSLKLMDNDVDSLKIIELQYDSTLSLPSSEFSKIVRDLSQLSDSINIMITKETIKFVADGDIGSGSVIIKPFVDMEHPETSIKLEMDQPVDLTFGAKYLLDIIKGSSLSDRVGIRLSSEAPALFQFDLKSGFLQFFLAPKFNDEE

B1: PIP peptide derived from Rad30 (peptide)
chain: QKKQVTSSKNILSFFTRKK
modifications: also: biotinylated, site not given here
fold increase in binding affinity relative to WT PCNA (SPR) [1]: 8.5 fold

B2: Ung1 (natural protein, yeast, UniProt P12887 1-359, looked up)
chain: MWCMRRLPTNSVMTVARKRKQTTIEDFFGTKKSTNEAPNKKGKSGATFMTITNGAAIKTETKAVAKEANTDKYPANSNAKDVYSKNLSSNLRTLLSLELETIDDSWFPHLMDEFKKPYFVKLKQFVTKEQADHTVFPPAKDIYSWTRLTPFNKVKVVIIGQDPYHNFNQAHGLAFSVKPPTPAPPSLKNIYKELKQEYPDFVEDNKVGDLTHWASQGVLLLNTSLTVRAHNANSHSKHGWETFTKRVVQLLIQDREADGKSLVFLLWGNNAIKLVESLLGSTSVGSGSKYPNIMVMKSVHPSPLSASRGFFGTNHFKMINDWLYNTRGEKMIDWSVVPGTSLREVQEANARLESESKDP
notes: Ung1 (base excision repair), yeast; also called pBD-Ung1; source: yeast two-hybrid fusion (pBD-GAL4, strain YRG2)
fold change in affinity relative to WT PCNA (Y2H generation time) (pol30-Ung1E3): 1.3 fold
fold change in affinity relative to WT PCNA (Y2H generation time) (pol30-79): 0.3 fold

B3: PIP peptide derived from Msh6 (peptide)
chain: QSSLLSFF
modifications: also: biotinylated, site not given here
fold increase in binding affinity relative to WT PCNA (SPR) [2]: 1.6 fold

B4: Msh6 (natural protein, yeast, UniProt Q03834 1-1242, looked up)
chain: MAPATPKTSKTAHFENGSTSSQKKMKQSSLLSFFSKQVPSGTPSKKVQKPTPATLENTATDKITKNPQGGKTGKLFVDVDEDNDLTIAEETVSTVRSDIMHSQEPQSDTMLNSNTTEPKSTTTDEDLSSSQSRRNHKRRVNYAESDDDDSDTTFTAKRKKGKVVDSESDEDEYLPDKNDGDEDDDIADDKEDIKGELAEDSGDDDDLISLAETTSKKKFSYNTSHSSSPFTRNISRDNSKKKSRPNQAPSRSYNPSHSQPSATSKSSKFNKQNEERYQWLVDERDAQRRPKSDPEYDPRTLYIPSSAWNKFTPFEKQYWEIKSKMWDCIVFFKKGKFFELYEKDALLANALFDLKIAGGGRANMQLAGIPEMSFEYWAAQFIQMGYKVAKVDQRESMLAKEMREGSKGIVKRELQCILTSGTLTDGDMLHSDLATFCLAIREEPGNFYNETQLDSSTIVQKLNTKIFGAAFIDTATGELQMLEFEDDSECTKLDTLMSQVRPMEVVMERNNLSTLANKIVKFNSAPNAIFNEVKAGEEFYDCDKTYAEIISSEYFSTEEDWPEVLKSYYDTGKKVGFSAFGGLLYYLKWLKLDKNLISMKNIKEYDFVKSQHSMVLDGITLQNLEIFSNSFDGSDKGTLFKLFNRAITPMGKRMMKKWLMHPLLRKNDIESRLDSVDSLLQDITLREQLEITFSKLPDLERMLARIHSRTIKVKDFEKVITAFETIIELQDSLKNNDLKGDVSKYISSFPEGLVEAVKSWTNAFERQKAINENIIVPQRGFDIEFDKSMDRIQELEDELMEILMTYRKQFKCSNIQYKDSGKEIYTIEIPISATKNVPSNWVQMAANKTYKRYYSDEVRALARSMAEAKEIHKTLEEDLKNRLCQKFDAHYNTIWMPTIQAISNIDCLLAITRTSEYLGAPSCRPTIVDEVDSKTNTQLNGFLKFKSLRHPCFNLGATTAKDFIPNDIELGKEQPRLGLLTGANAAGKSTILRMACIAVIMAQMGCYVPCESAVLTPIDRIMTRLGANDNIMQGKSTFFVELAETKKILDMATNRSLLVVDELGRGGSSSDGFAIAESVLHHVATHIQSLGFFATHYGTLASSFKHHPQVRPLKMSILVDEATRNVTFLYKMLEGQSEGSFGMHVASMCGISKEIIDNAQIAADNLEHTSRLVKERDLAANNLNGEVVSVPGGLQSDFVRIAYGDGLKNTKLGSGEGVLNYDWNIKRNVLKSLFSIIDDLQS
notes: Msh6 (mismatch repair), yeast; also called pBD-Msh6; source: yeast two-hybrid fusion (pBD-GAL4, strain YRG2)
fold change in affinity relative to WT PCNA (Y2H generation time) (pol30-Msh6E6): 1.4 fold
fold change in affinity relative to WT PCNA (Y2H generation time) (pol30-Msh6E2): 1.4 fold
fold change in affinity relative to WT PCNA (Y2H generation time) (pol30-79): 0.4 fold

B5: PIP peptide derived from Ung1 (peptide)
chain: QTTIEDFF
modifications: also: biotinylated, site not given here
fold increase in binding affinity relative to WT PCNA (SPR) [3]: 3.5 fold

B6: PIP peptide derived from Pol32 (peptide)
chain: QGTLESFFKRKAK
modifications: also: biotinylated, site not given here
fold increase in binding affinity relative to WT PCNA (SPR) [4]: 2 fold
